Experimental data: patent US20070178575A1, “Identification Of A Nitrilase From B. Japonicum By Rational Genome Mining And Methods Of Use” (priority 2005, published 2007)

Key:
N#CC(O)c1ccccc1 = system: T1, N#CC(O)c1ccccc1; experiment: Measurement of kinetic parameters (Bertholet ammonia assay, purified enzyme); type: biochemical, Bradyrhizobium japonicum USDA110; details: other: purified nitrilase, potassium phosphate buffer pH 7.2, 30° C.
T1 construct: His tag (C); made in house; host or cells: E. coli Rosetta(DE3)pLysS (plasmid pLH10.3, pET22b)
Procedure: (§1) The standard assays were carried out by mixing the substrate nitrile and purified nitrilase enzyme in potassium phosphate buffer (100 mM, pH 7.2). The reaction mixture was incubated at 30° C. Samples (100 μL) of the reaction mixture were withdrawn at several time intervals and quenched with 10 μl of 1 M HCl. The amount of ammonia produced in the reaction was measured using Bertholet assay as follows: A 100 μL aliquot of each of the following assay reagents was added subsequently: 0.02 M NaOCl, 0.33 M sodium phenoxide and 0.01% sodium nitroprusside solution. The mixture was then heated at 95° C. for 2 min, cooled rapidly in ice-water bath, and 200 μl of the mixture was then placed in a 96-well plate to measure the absorbance at 640 nm using SpectraMax M2 microplate reader (Molecular Devices). The amount of ammonia released during the hydrolysis was calculated by comparison with the standard curve obtained with standard ammonium chloride solution, and the activity was defined as the number of μmol of ammonia produced in 1 minute by 1 mg of enzyme (μmol·min^−1·mg^−1). […], activity assays were performed with different substrate concentrations, and Vmax and Km were calculated by best fitting the curve to experimental data according to Michaelis equation.

N#CCc1ccccc1 = system: T2, N#CCc1ccccc1; experiment: as above; type: biochemical, Bradyrhizobium japonicum USDA110; details: other: purified nitrilase, potassium phosphate buffer pH 7.2, 30° C.
T2 construct: His tag (C); made in house; host or cells: E. coli Rosetta(DE3)pLysS (plasmid pLH10.3, pET22b)
Procedure: as §1

## nitrilase bll6402 (Bradyrhizobium diazoefficiens USDA 110)
N#CC(O)c1ccccc1
  Km: 260 µM
  Vmax: 44.7 U/mg
  kcat: 27.0 s⁻¹
  kcat/Km: 104000 M⁻¹ s⁻¹
N#CCc1ccccc1
  Km: 100 µM
  Vmax: 2.2 U/mg
  kcat: 1.36 s⁻¹
  kcat/Km: 13600 s^−1M^−1
